Data reported in article PMC8809517, “Cofactor-independent RNA editing by a synthetic S-type PPR protein”.

What was measured:
[1] = tested on: GFP-9S motif 4 LD (synthetic construct); experiment: HRP pulldown; details: lysate, HRP: 50 mM Tris pH 8, 150 mM NaCl, 1 mM bME, 50 ug/ml BSA, 3 ug/ml yeast RNA, 0.5% heparin, 2 nM RNA, ITC (25 C) and FP: Tris pH 8, 200 mM KCl, 5% glycerol …
[2] = tested on: GFP-9S motif 4 KD (synthetic construct); experiment: HRP pulldown; details: lysate, HRP: 50 mM Tris pH 8, 150 mM NaCl, 1 mM bME, 50 ug/ml BSA, 3 ug/ml yeast RNA, 0.5% heparin, 2 nM RNA, ITC (25 C) and FP: Tris pH 8, 200 mM KCl, 5% glycerol …
[3] = tested on: GFP-9S motif 4 ID (synthetic construct); experiment: HRP pulldown; details: lysate; HRP: 50 mM Tris pH 8, 150 mM NaCl, 1 mM bME, 50 ug/ml BSA, 3 ug/ml yeast RNA, 0.5% heparin, 2 nM RNA; ITC (25 C) and FP: Tris pH 8, 200 mM KCl, 5% glycerol …
[4] = tested on: GFP-9S motif 4 TD (synthetic construct); experiment: HRP pulldown; details: HRP: 50 mM Tris pH 8, 150 mM NaCl, 1 mM bME, 50 ug/ml BSA, 3 ug/ml yeast RNA, 0.5% heparin, 2 nM RNA; ITC (25 C) and FP: Tris pH 8, 200 mM KCl, 5% glycerol …
[5] = tested on: TRX-9S-S2 (synthetic construct (Selaginella-type S motif consensus)); experiment: ITC; details: HRP: 50 mM Tris pH 8, 150 mM NaCl, 1 mM bME, 50 ug/ml BSA, 3 ug/ml yeast RNA, 0.5% heparin, 2 nM RNA; ITC (25 C) and FP: Tris pH 8, 200 mM KCl, 5% glycerol …
[6] = tested on: TRX-9P-S2 (synthetic construct); experiment: ITC; details: HRP: 50 mM Tris pH 8, 150 mM NaCl, 1 mM bME, 50 ug/ml BSA, 3 ug/ml yeast RNA, 0.5% heparin, 2 nM RNA; ITC (25 C) and FP: Tris pH 8, 200 mM KCl, 5% glycerol …
[7] = tested on: TRX-9S-S2 (synthetic construct (Selaginella-type S motif consensus)); experiment: fluorescence polarization; details: HRP: 50 mM Tris pH 8, 150 mM NaCl, 1 mM bME, 50 ug/ml BSA, 3 ug/ml yeast RNA, 0.5% heparin, 2 nM RNA; ITC (25 C) and FP: Tris pH 8, 200 mM KCl, 5% glycerol …
[8] = tested on: TRX-9S-E2 (synthetic construct); experiment: MST; details: HRP: 50 mM Tris pH 8, 150 mM NaCl, 1 mM bME, 50 ug/ml BSA, 3 ug/ml yeast RNA, 0.5% heparin, 2 nM RNA; ITC (25 C) and FP: Tris pH 8, 200 mM KCl, 5% glycerol …
[9] = tested on: GFP-9S (synthetic construct); experiment: HRP pulldown; details: HRP: 50 mM Tris pH 8, 150 mM NaCl, 1 mM bME, 50 ug/ml BSA, 3 ug/ml yeast RNA, 0.5% heparin, 2 nM RNA; ITC (25 C) and FP: Tris pH 8, 200 mM KCl, 5% glycerol …
[10] = tested on: TRX-AviTag-9S-S2 (synthetic construct); experiment: HRP pulldown; details: HRP: 50 mM Tris pH 8, 150 mM NaCl, 1 mM bME, 50 ug/ml BSA, 3 ug/ml yeast RNA, 0.5% heparin, 2 nM RNA; ITC (25 C) and FP: Tris pH 8, 200 mM KCl, 5% glycerol …
[11] = tested on: TRX-9S-S2 (synthetic construct (Selaginella-type S motif consensus)); experiment: HRP pulldown; details: HRP: 50 mM Tris pH 8, 150 mM NaCl, 1 mM bME, 50 ug/ml BSA, 3 ug/ml yeast RNA, 0.5% heparin, 2 nM RNA; ITC (25 C) and FP: Tris pH 8, 200 mM KCl, 5% glycerol …
[12] = tested on: TRX-9P-S2 (synthetic construct); experiment: HRP pulldown; details: HRP: 50 mM Tris pH 8, 150 mM NaCl, 1 mM bME, 50 ug/ml BSA, 3 ug/ml yeast RNA, 0.5% heparin, 2 nM RNA; ITC (25 C) and FP: Tris pH 8, 200 mM KCl, 5% glycerol …
9S-S2 PPR [13] = molecular target: T1, 9S-S2 PPR (synthetic construct); experiment: fluorescence polarization; HRP: 50 mM Tris pH 8, 150 mM NaCl, 1 mM beta-mercaptoethanol, 50 ug/ml BSA, 3 ug/ml yeast RNA, 0.5% heparin; ITC and FP: Tris pH 8, 200 mM KCl, 5% glycerol; MST: 50 mM Tris pH 8, 200 mM NaCl, 1 mM DTT, BSA, heparin, 0.05% Tween 20; details: protein: recombinant; tags: N-terminal TRX-His; label: fluorescein
T1 chain: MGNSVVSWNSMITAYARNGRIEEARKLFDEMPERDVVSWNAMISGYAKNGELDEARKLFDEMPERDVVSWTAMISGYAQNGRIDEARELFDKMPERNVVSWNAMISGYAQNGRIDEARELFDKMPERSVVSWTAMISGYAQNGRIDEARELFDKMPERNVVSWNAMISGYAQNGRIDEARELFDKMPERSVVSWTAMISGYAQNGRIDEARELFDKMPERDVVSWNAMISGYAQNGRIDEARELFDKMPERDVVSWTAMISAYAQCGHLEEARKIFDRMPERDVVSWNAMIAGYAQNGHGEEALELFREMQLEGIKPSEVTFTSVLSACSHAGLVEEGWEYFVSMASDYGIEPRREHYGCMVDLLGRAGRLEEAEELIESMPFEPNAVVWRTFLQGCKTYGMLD

9S-S2 PPR [14] = molecular target: T1, 9S-S2 PPR; experiment: high-throughput RNA pulldown on Ni-NTA beads; HRP: 50 mM Tris pH 8, 150 mM NaCl, 1 mM beta-mercaptoethanol, 50 ug/ml BSA, 3 ug/ml yeast RNA, 0.5% heparin; ITC and FP: Tris pH 8, 200 mM KCl, 5% glycerol; MST: 50 mM Tris pH 8, 200 mM NaCl, 1 mM DTT, BSA, heparin, 0.05% Tween 20; details: protein: recombinant; tags: N-terminal TRX-His; label: 5' Cy5
9P-S2 = molecular target: T2, 9P-S2 (synthetic construct); experiment: isothermal titration calorimetry; HRP: 50 mM Tris pH 8, 150 mM NaCl, 1 mM beta-mercaptoethanol, 50 ug/ml BSA, 3 ug/ml yeast RNA, 0.5% heparin; ITC and FP: Tris pH 8, 200 mM KCl, 5% glycerol; MST: 50 mM Tris pH 8, 200 mM NaCl, 1 mM DTT, BSA, heparin, 0.05% Tween 20; details: protein: recombinant; tags: N-terminal TRX-His
T2 chain: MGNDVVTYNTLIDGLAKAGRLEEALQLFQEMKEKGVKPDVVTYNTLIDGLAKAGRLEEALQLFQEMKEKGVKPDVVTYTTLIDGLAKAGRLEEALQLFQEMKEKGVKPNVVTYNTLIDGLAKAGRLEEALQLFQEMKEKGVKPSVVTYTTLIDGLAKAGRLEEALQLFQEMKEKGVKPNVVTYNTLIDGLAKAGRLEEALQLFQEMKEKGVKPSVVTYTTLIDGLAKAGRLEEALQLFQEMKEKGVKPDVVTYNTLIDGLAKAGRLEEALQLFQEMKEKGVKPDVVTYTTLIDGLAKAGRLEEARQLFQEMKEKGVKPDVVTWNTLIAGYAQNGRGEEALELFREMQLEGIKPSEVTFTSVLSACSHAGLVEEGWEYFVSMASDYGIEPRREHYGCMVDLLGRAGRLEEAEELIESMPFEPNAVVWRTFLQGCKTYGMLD

9S-S2 PPR [15] = molecular target: T1, 9S-S2 PPR; experiment: as above; details: protein: recombinant; tags: N-terminal TRX-His
[16] = Kd above 200 nM called unreliable

AUUAGACGUGA [Cy5-rpoA-G] was tested, and the Kd [1] was 183 nM, the Kd [2, 16] was 315 nM and the Kd [3] was 127 nM. It also gave a Kd [4] of 14 nM.

UUACACGUG [rpoA footprint (ITC)] was tested, and the Kd [5] was 48 nM and the Kd [6] was 239 nM.

For AUUACACGUG [rpoA (FP)], the Kd [7] was 7.6 nM.

With AUUACACGUGA [Cy5-rpoA] the Kd [8] was 6.8 nM, the Kd [1, 16] was 214 nM and the Kd [9] was 12 nM. For the same molecule, the Kd [10] was 5.3 nM, the Kd [2] was 189 nM and the Kd [11] was 6.4 nM. For the same molecule, the Kd [12] was 68 nM, the Kd [3] was 153 nM and the Kd [4] was 280 nM.

AUUAUACGUGA [IR-rpoA-U] gave a Kd [1] of 66.3 nM, a Kd [2, 16] of 279 nM and a Kd [3] of 53.5 nM.

AUUAAACGUGA [IR-rpoA-A] showed a Kd [1, 16] of 452 nM, a Kd [2, 16] of 409 nM and a Kd [3] of 175 nM.

Work on AUUACACGUG (ssRNA) [rpoA (FP)] yielded a Kd (9S-S2 PPR [13]) of 7.6 nM.

CAGCAACAGAAGCCCAAGCUCAUGGA (ssRNA) [Cy5-clpP (clpP1)]: no binding (9S-S2 PPR [14]).

UUACACGUG (ssRNA) [rpoA footprint (ITC)] was tested, and the Kd (9P-S2) was 239 nM and the Kd (9S-S2 PPR [15]) was 48 nM.
